For assay [1], the target named is T1, full-length PTP HSCF with an N-terminal hemagglutinin epitope tag (UniProt Q61152 1-453).
T1 construct: range 1-453; In vitro translated or expressed in COS cells; also called the phosphatase; wild type PTP HSCF
T1 sequence (looked up): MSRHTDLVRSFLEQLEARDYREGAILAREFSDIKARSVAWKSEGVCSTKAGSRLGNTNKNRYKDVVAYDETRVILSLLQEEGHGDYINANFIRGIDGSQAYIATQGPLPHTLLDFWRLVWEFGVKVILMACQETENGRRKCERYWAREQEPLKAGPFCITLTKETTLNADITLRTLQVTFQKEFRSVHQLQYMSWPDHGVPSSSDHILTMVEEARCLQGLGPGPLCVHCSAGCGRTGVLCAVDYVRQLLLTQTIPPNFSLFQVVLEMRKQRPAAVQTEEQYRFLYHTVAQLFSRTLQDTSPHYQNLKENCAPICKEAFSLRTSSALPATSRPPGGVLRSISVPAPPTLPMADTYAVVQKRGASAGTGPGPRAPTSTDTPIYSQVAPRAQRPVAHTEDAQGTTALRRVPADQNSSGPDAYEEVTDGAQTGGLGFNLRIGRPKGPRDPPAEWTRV
The assay is described as follows: co-immunoprecipitation from co-transfected COS cells. From the text:
The resultant precipitates were resolved on SDS polyacrylamide gels and probed with anti-FLAG antibody (to detect PST PIP), anti-HA antibody (to detect PTP HSCF) and anti-pY (anti-phosphotyrosine antibody) to detect this modified residue on these proteins. Note that the $W232A$ mutant of PST PIP is neither coprecipitated with PTP HSCF nor is it "substrate trapped" (as determined by hyperphosphorylation) by the dominant negative (C-S) form of PTP HSCF, while the wild type form of the protein (PST PIP wt) is found in a complex with precipitated PTP HSCF and is hyperphosphorylated ("substrate trapped" (Jia et al., *Science* 268(5218):1754–1758 (1995); Garton et al., *Mol. Cell. Biol.* 16(11):6408–6418 (1996); Flint et al., *Proc. Natl. Acad. Sci. USA* 94(5):1680–1685 (1997); Spencer et al. (1997), supra)) by dominant negative (C-S) PTP HSCF.
In vitro binding analyses between various PTP HSCF and PST PIP constructs were performed as previously described (Spencer et al, (1997), supra). Briefly, plasmids were transcribed and translated in vitro using the TnT Rabbit Reticulocyte Lysate System (Promega). […] Samples were than reacted with GST fusion proteins at various concentrations, and the bound proteins were centrifuged using glutathione-sepharose beads and analyzed on SDS polyacrylamide gels. […]

Assay [2] has as its target T2, PTP HSCF with P440 mutated to alanine, HA tagged (UniProt Q61152 1-453).
T2 construct: range 1-453; also called HSCF P440
T2 sequence (looked up): T1 sequence (looked up) with P440A
The assay is described as follows: in vitro translated PTP HSCF mutant precipitated with 1 or 10 µg/ml GST PST PIP. As to the method:
Multiple bands precipitated with the GST PST PIP fusion protein are apparently C-terminal proteolyzed products of the PTP. Also shown are GST PST PIP precipitations (10 μg/ml) performed on a double mutant of PTP HSCF (R+W) with both residues $R444$ and $W450$ mutated to alanine (bottom panel FIG. 14 A/2). B. COS cells were co-transfected with a 10:1 ratio of plasmids encoding hemagglutinin (HA) tagged PTP HSCF with the illustrated alanine substitutions or a mutant of PTP HSCF deleted for the C-terminal 24 amino acids (PTP $HSCFD24$) and wild type PST PIP with a C-terminal FLAG epitope tag, respectively. Transfected cell lysates were immunoprecipitated with anti-HA monoclonal antibodies and the precipitates were blotted with anti-PST PIP polyclonal antibody to detect the relative amounts of PST PIP complexed with either wild type or different mutant forms of PTP HSCF. Lysates were also immunoprecipitated with anti-HA antibody and blotted with the same antibody to insure equal expression of PTP HSCF. Equal expression of PSTPIP was determined by immunoprecipitating lysates with anti-FLAG monoclonal antibody and blotting with anti-PST PIP polyclonal antibody.
In vitro binding analyses between various PTP HSCF and PST PIP constructs were performed as previously described (Spencer et al, (1997), supra). Briefly, plasmids were transcribed and translated in vitro using the TnT Rabbit Reticulocyte Lysate System (Promega). Samples were diluted in 50 mM HEPES, pH 7.2, 1% triton X-100, 10% glycerol, 100 mM NaCl, and 2 µg/ml each of leupeptin, pepstatin, aprotinin and PMSF (lysis buffer). Samples were than reacted with GST fusion proteins at various concentrations, and the bound proteins were centrifuged using glutathione-sepharose beads and analyzed on SDS polyacrylamide gels. C-terminally-derived peptide inhibition studies were performed by incubating the GST fusion protein binding reactions in the presence of 10 µg/ml of the indicated peptides. Peptides were produced by FMOC-protected amino acids as previously described (Spencer et al, (1997), supra). In vivo interactions between various forms of PTP HSCF and PST PIP were also performed as previously described (Spencer et al, (1997), supra).

Where a chain is given by its changes, count along the chain named. Names may count otherwise.

B1: W232A mutant of PST PIP, C-terminal FLAG (other)
chain: MMAQLQFRDAFWCRDFTAHTGYEVLLQRLLDGRKMCKDVEELLRQRAQAEERYGKELVQIARKAGGQTEMNSLRTSFDSLKQQTENVGSAHIQLALALREELRSLEEFRERQKEQRKKYEAIMDRVQKSKLSLYKKTMESKKAYDQKCRDADDAEQAFERVSANGHQKQVEKSQNKAKQCKESATEAERVYRQNIEQLERARTEWEQEHRTTCEAFQLQEFDRLTILRNALAVHCNQLSMQCVKDDELYEEVRLTLEGCDVEGDINGFIQSKSTGREPPAPVPYQNYYDREVTPLIGSPSIQPSCGVIKRFSGLLHGSPKTTPSAPAASTETLTPTPERNELVYASIEVQATQGNLNSSAQDYRALYDYTAQNSDELDISAGDILAVILEGEDGWWTVERNGQRGFVPGSYLEKLDYKDDDDK
notes: In vitro translated or expressed in COS cells; also called W232A PST PIP; PST PIP with an alanine replacement mutation at tryptophan232
As to B1, the binding result in assay [1] is reported as “no binding”.

B2: GST-PSTPIP (GST fusion of full-length PSTPIP, amino acids 2-415) (other)
chain: MAQLQFRDAFWCRDFTAHTGYEVLLQRLLDGRKMCKDVEELLRQRAQAEERYGKELVQIARKAGGQTEMNSLRTSFDSLKQQTENVGSAHIQLALALREELRSLEEFRERQKEQRKKYEAIMDRVQKSKLSLYKKTMESKKAYDQKCRDADDAEQAFERVSANGHQKQVEKSQNKAKQCKESATEAERVYRQNIEQLERARTEWEQEHRTTCEAFQLQEFDRLTILRNALWVHCNQLSMQCVKDDELYEEVRLTLEGCDVEGDINGFIQSKSTGREPPAPVPYQNYYDREVTPLIGSPSIQPSCGVIKRFSGLLHGSPKTTPSAPAASTETLTPTPERNELVYASIEVQATQGNLNSSAQDYRALYDYTAQNSDELDISAGDILAVILEGEDGWWTVERNGQRGFVPGSYLEKL
notes: Made in DH5-alpha bacteria from pGEX4T-2; also called GST-full-length PSTPIP; GST PTP PIP; not shown: glutathione S-transferase encoded by pGEX-4T-2 (Pharmacia)
B2: the binding result in assay [2] is reported as “binds”.

The values are drawn from patent publication US6887705B1, “Tyrosine phosphorylated cleavage furrow-associated proteins (PSTPIPs)” (Genentech, Inc., priority 1997, dated 2005).
